Source: publication PMC8191807, “The fidelity of DNA replication, particularly on GC-rich templates, is reduced by defects of the Fe–S cluster in DNA polymerase δ” (Nucleic Acids Research, 2021)

Assays:
[1] = biological target: T1, Pol3p, catalytic subunit of DNA polymerase δ (overexpressed for Pol δ purification) (S. cerevisiae, UniProt P15436 1-1097); assay: co-purification (glutathione Sepharose, MonoS FPLC), composition by gel electrophoresis; Pol3p, Pol31p and Pol32p overexpressed together in the MET18 strain BJ2168; batch bound to glutathione Sepharose 4B at 4°C, washed with Hep250, Hep150, Hep50, eluted with 20 mM glutathione, PreScission Protease, MonoS gradient 50-1000 mM NaCl; settings: partners not purified
T1 construct: Pol3p, catalytic subunit of DNA polymerase δ, Saccharomyces cerevisiae; also called catalytic subunit of Pol δ; source: purified on glutathione Sepharose 4B, PreScission Protease, MonoS FPLC
T1 sequence (looked up): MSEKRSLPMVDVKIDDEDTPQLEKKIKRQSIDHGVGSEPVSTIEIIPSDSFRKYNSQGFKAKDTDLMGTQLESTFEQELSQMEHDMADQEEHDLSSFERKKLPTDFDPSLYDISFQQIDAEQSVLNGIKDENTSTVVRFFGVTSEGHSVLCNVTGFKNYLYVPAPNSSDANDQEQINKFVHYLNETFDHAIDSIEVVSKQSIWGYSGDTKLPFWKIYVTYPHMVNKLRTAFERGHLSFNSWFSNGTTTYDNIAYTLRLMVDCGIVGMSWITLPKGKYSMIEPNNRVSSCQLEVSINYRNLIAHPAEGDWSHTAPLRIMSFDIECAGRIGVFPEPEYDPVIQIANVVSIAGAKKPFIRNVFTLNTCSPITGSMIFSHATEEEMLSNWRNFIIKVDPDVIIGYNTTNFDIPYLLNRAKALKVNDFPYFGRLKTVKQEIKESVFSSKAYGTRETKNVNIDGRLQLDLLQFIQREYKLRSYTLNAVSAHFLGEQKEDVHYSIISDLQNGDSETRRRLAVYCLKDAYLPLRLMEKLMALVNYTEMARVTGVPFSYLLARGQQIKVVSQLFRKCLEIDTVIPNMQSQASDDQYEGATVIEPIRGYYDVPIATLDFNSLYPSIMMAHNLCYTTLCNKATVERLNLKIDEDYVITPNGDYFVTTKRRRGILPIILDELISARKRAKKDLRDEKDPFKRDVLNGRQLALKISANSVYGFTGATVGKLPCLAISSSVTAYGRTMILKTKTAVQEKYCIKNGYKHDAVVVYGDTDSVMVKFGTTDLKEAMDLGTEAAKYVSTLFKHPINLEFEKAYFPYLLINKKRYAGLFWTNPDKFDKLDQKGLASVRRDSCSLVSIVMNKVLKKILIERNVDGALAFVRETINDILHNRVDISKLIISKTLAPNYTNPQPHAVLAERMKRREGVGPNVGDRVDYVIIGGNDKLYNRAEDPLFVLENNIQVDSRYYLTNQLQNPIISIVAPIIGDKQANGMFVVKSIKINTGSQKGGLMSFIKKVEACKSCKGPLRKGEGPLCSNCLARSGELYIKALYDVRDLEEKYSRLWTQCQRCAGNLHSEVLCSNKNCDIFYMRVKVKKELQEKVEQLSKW

[2] = biological target: T2, Pol3 fused to a LexA DNA-binding domain (LexABD-POL3, pBL322) (S. cerevisiae, UniProt P15436 1-1097); assay: two-hybrid; LexA DNA-binding domain and GAL4 activation domain fusions, (lexAop)8-lacZ reporter, quantitative β-galactosidase assays in triplicate; wild-type strain L40 and its met18Δ derivative DKy440; settings: partners not purified
T2 construct: Pol3p, catalytic subunit of DNA polymerase δ, Saccharomyces cerevisiae; also called Pol3^BD; source: yeast two-hybrid fusion (2μ vector pBTM116, strain L40 or its met18Δ derivative DKy440)
T2 sequence (looked up): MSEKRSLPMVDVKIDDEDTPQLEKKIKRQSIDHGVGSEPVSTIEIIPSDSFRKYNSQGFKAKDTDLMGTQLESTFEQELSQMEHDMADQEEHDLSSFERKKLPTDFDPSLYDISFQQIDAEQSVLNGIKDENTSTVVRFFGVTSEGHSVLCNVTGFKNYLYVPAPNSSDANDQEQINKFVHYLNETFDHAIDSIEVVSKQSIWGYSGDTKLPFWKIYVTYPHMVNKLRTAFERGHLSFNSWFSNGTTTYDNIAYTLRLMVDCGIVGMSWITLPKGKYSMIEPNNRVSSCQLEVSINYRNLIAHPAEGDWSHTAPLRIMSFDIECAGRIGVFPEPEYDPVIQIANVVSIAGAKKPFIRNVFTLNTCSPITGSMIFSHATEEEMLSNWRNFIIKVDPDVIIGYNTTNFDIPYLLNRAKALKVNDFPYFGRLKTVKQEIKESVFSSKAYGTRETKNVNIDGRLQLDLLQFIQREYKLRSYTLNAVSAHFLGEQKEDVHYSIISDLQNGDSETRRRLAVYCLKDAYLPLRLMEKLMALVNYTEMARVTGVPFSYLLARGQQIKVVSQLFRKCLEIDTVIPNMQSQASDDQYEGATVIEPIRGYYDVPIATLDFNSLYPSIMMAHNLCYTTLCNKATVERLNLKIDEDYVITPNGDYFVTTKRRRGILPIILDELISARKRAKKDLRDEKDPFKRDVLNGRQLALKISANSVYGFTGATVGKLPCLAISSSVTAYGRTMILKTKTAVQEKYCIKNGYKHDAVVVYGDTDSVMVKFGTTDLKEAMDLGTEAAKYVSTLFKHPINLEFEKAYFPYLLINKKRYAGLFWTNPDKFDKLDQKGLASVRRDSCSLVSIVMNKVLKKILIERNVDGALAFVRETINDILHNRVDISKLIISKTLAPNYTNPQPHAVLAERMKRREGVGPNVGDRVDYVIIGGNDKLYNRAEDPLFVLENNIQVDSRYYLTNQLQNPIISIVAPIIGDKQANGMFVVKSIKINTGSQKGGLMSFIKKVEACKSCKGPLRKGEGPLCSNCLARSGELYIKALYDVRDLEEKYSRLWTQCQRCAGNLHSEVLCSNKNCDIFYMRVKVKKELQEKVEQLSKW

B1: Pol32p, accessory subunit of DNA polymerase δ (overexpressed for Pol δ purification) (natural protein, S. cerevisiae, UniProt P47110 1-350, looked up)
chain: MDQKASYFINEKLFTEVKPVLFTDLIHHLKIGPSMAKKLMFDYYKQTTNAKYNCVVICCYKDQTIKIIHDLSNIPQQDSIIDCFIYAFNPMDSFIPYYDIIDQKDCLTIKNSYELKVSESSKIIERTKTLEEKSKPLVRPTARSKTTPEETTGRKSKSKDMGLRSTALLAKMKKDRDDKETSRQNELRKRKEENLQKINKQNPEREAQMKELNNLFVEDDLDTEEVNGGSKPNSPKETDSNDKDKNNDDLEDLLETTAEDSLMDVPKIQQTKPSETEHSKEPKSEEEPSSFIDEDGYIVTKRPATSTPPRKPSPVVKRALSSSKKQETPSSNKRLKKQGTLESFFKRKAK
notes: Pol32p, accessory subunit of DNA polymerase δ, Saccharomyces cerevisiae
stoichiometry N [1]: 1.1 molar ratio relative to Pol3p

B2: Pol31p, accessory subunit of DNA polymerase δ (overexpressed for Pol δ purification) (natural protein, S. cerevisiae, UniProt P46957 1-487, looked up)
chain: MDALLTKFNEDRSLQDENLSQPRTRVRIVDDNLYNKSNPFQLCYKKRDYGSQYYHIYQYRLKTFRERVLKECDKRWDAGFTLNGQLVLKKDKVLDIQGNQPCWCVGSIYCEMKYKPNVLDEVINDTYGAPDLTKSYTDKEGGSDEIMLEDESGRVLLVGDFIRSTPFITGVVVGILGMEAEAGTFQVLDICYPTPLPQNPFPAPIATCPTRGKIALVSGLNLNNTSPDRLLRLEILREFLMGRINNKIDDISLIGRLLICGNSVDFDIKSVNKDELMISLTEFSKFLHNILPSISVDIMPGTNDPSDKSLPQQPFHKSLFDKSLESYFNGSNKEILNLVTNPYEFSYNGVDVLAVSGKNINDICKYVIPSNDNGESENKVEEGESNDFKDDIEHRLDLMECTMKWQNIAPTAPDTLWCYPYTDKDPFVLDKWPHVYIVANQPYFGTRVVEIGGKNIKIISVPEFSSTGMIILLDLETLEAETVKIDI
notes: Pol31p, accessory subunit of DNA polymerase δ, Saccharomyces cerevisiae
stoichiometry N [1]: 0.8 molar ratio relative to Pol3p

B3: Pol31 fused to a GAL4-activation domain (GAL4AD-POL31, pBL364) (natural protein, S. cerevisiae, UniProt P46957 1-487, looked up)
chain: MDALLTKFNEDRSLQDENLSQPRTRVRIVDDNLYNKSNPFQLCYKKRDYGSQYYHIYQYRLKTFRERVLKECDKRWDAGFTLNGQLVLKKDKVLDIQGNQPCWCVGSIYCEMKYKPNVLDEVINDTYGAPDLTKSYTDKEGGSDEIMLEDESGRVLLVGDFIRSTPFITGVVVGILGMEAEAGTFQVLDICYPTPLPQNPFPAPIATCPTRGKIALVSGLNLNNTSPDRLLRLEILREFLMGRINNKIDDISLIGRLLICGNSVDFDIKSVNKDELMISLTEFSKFLHNILPSISVDIMPGTNDPSDKSLPQQPFHKSLFDKSLESYFNGSNKEILNLVTNPYEFSYNGVDVLAVSGKNINDICKYVIPSNDNGESENKVEEGESNDFKDDIEHRLDLMECTMKWQNIAPTAPDTLWCYPYTDKDPFVLDKWPHVYIVANQPYFGTRVVEIGGKNIKIISVPEFSSTGMIILLDLETLEAETVKIDI
notes: Pol31p, accessory subunit of DNA polymerase δ, Saccharomyces cerevisiae; also called Pol31^AD; source: yeast two-hybrid fusion (2μ vector pACT2, strain L40 or its met18Δ derivative DKy440)
fold reduction of β-galactosidase in the met18 strain relative to the wild-type strain [2]: ~2 fold
